How the values were obtained:
[1] = tested on: K4 kissing-loop RNA reporter; test: apparent KD of K4 kissing-loop reporter; higher = weaker reporter binding; conditions: Eterna round: R107;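 note: bound reporter read as fluorescence of individual clusters on recovered sequencing chips by microscopy, with normalized cluster intensities fitted with a binding model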
Description: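 RNA-MaP round R107: designed RNA switches with theophylline, tryptophan, arginine or FMN aptamers are transcribed on-chip within common flanks. They are titrated with a labelled K4 kissing-loop RNA reporter in RNA-MaP buffer (100 mM Tris pH 7.5, 80 mM KCl, 4 mM MgCl2), without ligand or with the indicated ligand. Median apparent KD per design.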

[2] = tested on: MS2 coat protein; test: apparent KD of MS2 coat protein; designed switch direction (-1 OFF switch, 1 ON switch): -1; higher = weaker reporter binding
How it was run: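 The buffer was Tris-HCl pH 7.5 with KCl, MgCl2, BSA, DTT, tRNA and Tween-20. In it, SNAP-549-labelled MS2 coat protein was titrated in doubling steps from 0.7 or 1.5 nM to 3 µM over chip-bound RNA switches transcribed by stalled E. coli RNA polymerase on Illumina chips. Apparent KD is the per-design median over clusters of curve fits to normalised fluorescence.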

[3] = Eterna round: R95, input ligand: microRNA oligo, concentration not stated
[4] = input ligand: microRNA oligo, concentration not stated

Row | Sequence | apparent KD of MS2 coat protein [2, 3] [µM] | apparent KD of MS2 coat protein ([2]; input ligand: FMN 200 uM) [µM] | apparent KD of MS2 coat protein ([2]; input ligand: none) [µM] | further results
1 | AAACCAAUCAGAGGAUAUUCUUUAUUCGACAUAACCUUCUAUAAGGUGCAGUGAUGUUGCAAUAUAGGAGAAGGCUGAUUGACAA [Exclusion FMN B Gf 13] |  |  |  | apparent KD of K4 kissing-loop reporter ([1]; input ligand: FMN 200 uM): 0.232 µM; apparent KD of K4 kissing-loop reporter ([1]; input ligand: arginine 13.2 mM): 0.338 µM; apparent KD of K4 kissing-loop reporter ([1]; input ligand: none): 0.516 µM; apparent KD of K4 kissing-loop reporter ([1]; input ligand: theophylline 20 uM): 0.488 µM; apparent KD of K4 kissing-loop reporter ([1]; input ligand: tryptophan 2.4 mM): 0.413 µM
2 | UUUUACAUAGGAUAUAGUUUGUUGUACAUGAGGAUCACCCAUGUUUUUGUUUGUGCUUUUCUAGAAGGAUGUUUCU [JR_E5_Sub016] (puzzle: Exclusion 5) | 0.0289 |  |  | 
3 | UUUUACCGAGGAUAUACAUAUAAAUAAUAAUCCUCAUUAUUACAUGAGGAUCACCCAUGUAGAAGGCGGAUUUU [Mat - Exclusion 2 - Mod of Hog - D88] (puzzle: Exclusion 2) | 0.0963 |  |  | 
4 | UUUUAGAGAGGAUAUAUAUUGUGAAACAUGAGGAUCACCCAUGUAAUAAUAUGGAUAUAAAUAGAAGGCUCAUUUA [Mat - Exclusion 5 - JL mod - D8] (puzzle: Exclusion 5) | 0.0269 |  |  | apparent KD of MS2 coat protein ([2]; Eterna round: R95, input ligand: FMN 200 uM): 0.0257 µM; apparent KD of MS2 coat protein ([2]; Eterna round: R95, input ligand: none): 0.0288 µM
5 | UUUUAGCAAGCGAGUAUUAACAUGAGGAUCACCCAUGUGCAUCCAGUAUUACUUUUAGAUCAAGCUCGUCUUAUAUA [JR_STOV1_v2_Sub082] (Eterna round: R97, puzzle: Sensor, turn-off variant 1) |  | 0.199 | 0.285 | 
6 | UUUUAGCAAGGAUAUACAUUUUUUUUAUUAUCCUCAUUAUUACAUGAGGAUCACCCAUGUAGAAGGUGCAUUUU [My Design] (puzzle: Exclusion 2) | 0.0367 |  |  | 
7 | UUUUAGUAAGGAUAUGAUUAGAUCUACGAAAGUAGAUCUAAUCAGAAGGUACAUGAGGAUCACCCAUGUAGAUU [Mod of Brourd 3 - Jieux - Exclusion 4] (Eterna round: R97, puzzle: Exclusion 4) |  | 0.0242 | 0.0185 | 
8 | UUUUAGUCAGGAUAUACAUGAGGAUCACCCAUGUAAAAUUUUAAUUUAAUUUGAAUGUGUAGAAGGGACAUUUU [Ex3 #41] (Eterna round: R97, puzzle: Exclusion 3) |  | 0.0236 | 0.0264 | 
9 | UUUUAUUGCAAGGAUAUGCAAAUUAUUAUUAAUGCAGAAGGUGCUACAUGAGGAUCACCCAUGUUUCUGGGUUU [JR_E6_Sub043] (puzzle: Exclusion 6) | 0.11 |  |  | 
10 | UUUUCGUAAGGAUAUGGUUAGAUCUACGAAAGUAGAUCUAACCAGAAGGUACAUGAGGAUCACCCAUGUUGGUA [Mod of Brourd 22 - Jieux - Exclusion 4] (Eterna round: R97, puzzle: Exclusion 4) |  | 0.0798 | 0.0299 | 
11 | UUUUGCACGCUGCGGUCCUACAUGAGGAUCACCCAUGUGGUCUGGUGGCGUGGGUCGCCGGACUUGGCUCGUCUUGA [salish99_S_TOV1_R5_037] (Eterna round: R97, puzzle: Sensor, turn-off variant 1) |  | 0.0175 | 0.0182 | 
12 | UUUUGCUCAGGAUAUACAUGAGGAUCACCCAUGUAUAUUGAAGGUAAUACAUGGGAAUGUAGAAGGGAGCUCAU [Omei Ex3 Pseudoloop 21] (Eterna round: R97, puzzle: Exclusion 3) |  | 0.0479 | 0.0704 | 
13 | UUUUGGCAUGUAGGAUAUGGGUCCGAUUAGGAUUUAGAAGGACAUGAGGAUCACCCAUGUGCACUUAAUUGGUCUUUUUUUUUU [EXclNG1-LROPPY16] (Eterna round: R96, puzzle: Exclusion NG 1) |  | 0.0377 | 0.0365 | apparent KD of MS2 coat protein [2, 4]: 0.0235 µM
14 | UUUUGGCAUGUAGGAUAUGGGUCCGAUUAGGAUUUAGAAGGACAUGAGGAUCACCCAUGUGCAUUUAAUUGGUCAUUACCUUUU [EXclNG1-LROPPY11] (Eterna round: R96, puzzle: Exclusion NG 1) |  |  |  | apparent KD of MS2 coat protein [2, 4]: 0.0655 µM
15 | UUUUGGCAUGUAGGAUAUGGGUCCGAUUGGGAUUUAGAAGGACAUGAGGAUCACCCAUGUGCCCUUACUUGGUCUUUUUUUUUU [EXclNG1-LROPPY19] (Eterna round: R96, puzzle: Exclusion NG 1) |  | 0.298 | 0.228 | apparent KD of MS2 coat protein [2, 4]: 0.128 µM
16 | UUUUGUCAGGUAUUUAUUAACAUGAGGAUCACCCAUGUGCAUCCAAAAUUACUUUUAGAUCAAGCUCGUCUUAUAUA [JR_STOV1_Sub089] (Eterna round: R97, puzzle: Sensor, turn-off variant 1) |  | 0.0943 | 0.102 | 
17 | UUUUUAUAUGAAGGAUAUACUUAACAUGAGGAUCACCCAUGUGGUGUUGUGAGUGAGUGAGUUUAGUAGAAGGUCAAUUCUUAU [JMF's solution 82] (Eterna round: R96, puzzle: Exclusion NG 2) |  | 0.516 | 0.395 | apparent KD of MS2 coat protein [2, 4]: 0.651 µM
18 | UUUUUAUUUGAAGGAUAUACUUAACAUGAGGAUCACCCAUGUGGUGUUGUGAGUGAGUGAGUUUAGUAGAAGGUCAAUUAUUUU [JMF's solution 18] (Eterna round: R96, puzzle: Exclusion NG 2) |  |  |  | apparent KD of MS2 coat protein [2, 4]: 0.359 µM
19 | UUUUUCUCAGGAUAUACAUGAGGAUCACCCAUGUAUAUUAAGGAUAAUACAUGGGAAUGUAGAAGGGAGCUCAU [Omei Ex3 Pseudoloop 12] (Eterna round: R97, puzzle: Exclusion 3) |  | 0.106 | 0.16 | 
20 | UUUUUGUAUGAAGGAUAUACUUAACAUGAGGAUCACCCAUGUGGUGUUGUGAGUGAGUGAGUUUAGUAGAAGGUCAAGUAUUUU [JMF's solution 46] (Eterna round: R96, puzzle: Exclusion NG 2) |  | 0.58 | 0.39 | apparent KD of MS2 coat protein [2, 4]: 0.606 µM
21 | UUUUUGUCAGGAUAUGACUAGAUGCACGUUAGUGUAUUUACUUAGAAGGGACAUGAGGAUCACCCAUGUAUUCC [Bring Us a Shrubbery-13] (puzzle: Exclusion 4) | 0.0262 |  |  | 
22 | UUUUUGUGAGGAUAUCAGUAGUAAAAAAAUAAAAUUACUACUGAGAAGGCACAUGAGGAUCACCCAUGUUUUUC [salish99_ex4_r3_014] (puzzle: Exclusion 4) | 0.0356 |  |  | 
23 | UUUUUUGUUGUGAGGAUAUCGUUGUGGAUGUGGAUCGAGAAGGCACAUGAGGAUCACCCAUGUUUGUUGUGGUU [JR_BMOE4_Sub085] (puzzle: Brourd's mod of Exclusion 4) | 0.0867 |  |  | 
24 | UUUUUUUUGGUAAGGAUAUGAUGCAGGAAACUGCGUCAGAAGGUACAUGAGGAUCACCCAUGUUAAUUUUUUUU [Explosion 11 - Jieux - Brourd's mod of Exclusion 4] (Eterna round: R97, puzzle: Brourd's mod of Exclusion 4) |  | 0.023 | 0.0186 | 

Source: the supplement of paper PMC9170038
